Laboratory results: IntAct's records for PubMed 31515488

B1: AP-4 complex accessory subunit RUSC1 (Homo sapiens), Q9BVN2 (parent)
chain: MLSPQRALLCNLNHIHLQHVSLGLHLSRRPELQEGPLSTPPPPGDTGGKESRGPCSGTLVDANSNSPAVPCRCCQEHGPGLENRQDPSQEEEGAASPSDPGCSSSLSSCSDLSPDESPVSVYLRDLPGDEDAHPQPSIIPLEQGSPLASAGPGTCSPDSFCCSPDSCSGASSSPDPGLDSNCNALTTCQDVPSPGLEEEDERAEQDLPTSELLEADDGKIDAGKTEPSWKINPIWKIDTEKTKAEWKTTENNNTGWKNNGNVNSSWKSEPEKFDSGWKTNTRITDSGSKTDAGKIDGGWRSDVSEEPVPHRTITSFHELAQKRKRGPGLPLVPQAKKDRSDWLIVFSPDTELPPSGSPGGSSAPPREVTTFKELRSRSRAPAPPVPPRDPPVGWALVPPRPPPPPVPPRRKKNRPGLQPIAEGQSEEGRAVSPAAGEEAPAAKEPGAQAGLEVRSSWSFAGVPGAQRLWMAEAQSGTGQLQEQKKGLLIAVSVSVDKIISHFGAARNLVQKAQLGDSRLSPDVGHLVLTTLCPALHALVADGLKPFRKDLITGQRRSSPWSVVEASVKPGSSTRSLGTLYSQVSRLAPLSSSRSRFHAFILGLLNTKQLELWFSSLQEDAGLLSLLYLPTGFFSLARGGCPSLSTELLLLLQPLSVLTFHLDLLFEHHHHLPLGPPQAPAPPGPPPALQQTMQAMLHFGGRLAQSLRGTSKEAASDPSDSPNLPTPGSWWEQLTQASRVYASGGTEGFPLSRWAPGRHGTAAEEGAQERPLPTDEMAPGRGLWLGRLFGVPGGPAENENGALKSRRPSSWLPPTVSVLALVKRGAPPEMPSPQELEASAPRMVQTHRAVRALCDHTAARPDQLSFRRGEVLRVITTVDEDWLRCGRDGMEGLVPVGYTSLVL
B2: Dynein light chain 2, cytoplasmic (Homo sapiens), Q96FJ2 (parent)
chain: MSDRKAVIKNADMSEDMQQDAVDCATQAMEKYNIEKDIAAYIKKEFDKKYNPTWHCIVGRNFGSYVTHETKHFIYFYLGQVAILLFKSG
partner: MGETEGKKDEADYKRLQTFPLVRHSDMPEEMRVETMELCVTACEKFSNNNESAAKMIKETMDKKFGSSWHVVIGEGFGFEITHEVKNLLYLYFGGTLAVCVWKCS
B3: Cyclin-D1-binding protein 1 (Homo sapiens), O95273 (parent)
chain: MASATAPAAAVPTLASPLEQLRHLAEELRLLLPRVRVGEAQETTEEFNREMFWRRLNEAAVTVSREATTLTIVFSQLPLPSPQETQKFCEQVHAAIKAFIAVYYLLPKDQGITLRKLVRGATLDIVDGMAQLMEVLSVTPTQSPENNDLISYNSVWVACQQMPQIPRDNKAAALLMLTKNVDFVKDAHEEMEQAVEECDPYSGLLNDTEENNSDNHNHEDDVLGFPSNQDLYWSEDDQELIIPCLALVRASKACLKKIRMLVAENGKKDQVAQLDDIVDISDEISPSVDDLALSIYPPMCHLTVRINSAKLVSVLKKALEITKASHVTPQPEDSWIPLLINAIDHCMNRIKELTQSELEL
partner: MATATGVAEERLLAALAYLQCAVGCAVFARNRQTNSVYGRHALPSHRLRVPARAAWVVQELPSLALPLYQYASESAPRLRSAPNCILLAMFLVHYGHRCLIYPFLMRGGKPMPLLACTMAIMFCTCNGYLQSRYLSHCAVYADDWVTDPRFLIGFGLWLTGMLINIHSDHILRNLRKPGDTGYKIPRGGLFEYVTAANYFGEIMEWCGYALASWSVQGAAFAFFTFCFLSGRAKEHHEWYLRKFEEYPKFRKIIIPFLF
B4: Alpha-ketoglutarate-dependent dioxygenase alkB homolog 4 (Homo sapiens), Q9NXW9 (parent)
chain: MAAAAAETPEVLRECGCKGIRTCLICERQRGSDPPWELPPAKTYRFIYCSDTGWAVGTEESDFEGWAFPFPGVMLIEDFVTREEEAELVRLMDRDPWKLSQSGRRKQDYGPKVNFRKQKLKTEGFCGLPSFSREVVRRMGLYPGLEGFRPVEQCNLDYCPERGSAIDPHLDDAWLWGERLVSLNLLSPTVLSMCREAPGSLLLCSAPSAAPEALVDSVIAPSRSVLCQEVEVAIPLPARSLLVLTGAARHQWKHAIHRRHIEARRVCVTFRELSAEFGPGGRQQELGQELLRIALSFQGRPV
B5: Nucleoplasmin-3 (Homo sapiens), O75607 (parent)
chain: MAAGTAAALAFLSQESRTRAGGVGGLRVPAPVTMDSFFFGCELSGHTRSFTFKVEEEDDAEHVLALTMLCLTEGAKDECNVVEVVARNHDHQEIAVPVANLKLSCQPMLSLDDFQLQPPVTFRLKSGSGPVRITGRHQIVTMSNDVSEEESEEEEEDSDEEEVELCPILPAKKQGGRP
partner: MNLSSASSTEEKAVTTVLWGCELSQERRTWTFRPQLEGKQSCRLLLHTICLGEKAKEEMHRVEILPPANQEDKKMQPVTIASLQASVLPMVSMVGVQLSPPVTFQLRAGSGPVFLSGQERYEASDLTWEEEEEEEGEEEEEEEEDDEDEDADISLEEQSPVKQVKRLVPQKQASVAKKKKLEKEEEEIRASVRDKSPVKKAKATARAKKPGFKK
B6: Enhancer of mRNA-decapping protein 3 (Homo sapiens), Q96F86 (parent)
chain: MATDWLGSIVSINCGDSLGVYQGRVSAVDQVSQTISLTRPFHNGVKCLVPEVTFRAGDITELKILEIPGPGDNQHFGDLHQTELGPSGAGCQVGINQNGTGKFVKKPASSSSAPQNIPKRTDVKSQDVAVSPQQQQCSKSYVDRHMESLSQSKSFRRRHNSWSSSSRHPNQATPKKSGLKNGQMKNKDDECFGDDIEEIPDTDFDFEGNLALFDKAAVFEEIDTYERRSGTRSRGIPNERPTRYRHDENILESEPIVYRRIIVPHNVSKEFCTDSGLVVPSISYELHKKLLSVAEKHGLTLERRLEMTGVCASQMALTLLGGPNRLNPKNVHQRPTVALLCGPHVKGAQGISCGRHLANHDVQVILFLPNFVKMLESITNELSLFSKTQGQQVSSLKDLPTSPVDLVINCLDCPENVFLRDQPWYKAAVAWANQNRAPVLSIDPPVHEVEQGIDAKWSLALGLPLPLGEHAGRIYLCDIGIPQQVFQEVGINYHSPFGCKFVIPLHSA

Variants of: B1
Conditions: with pnma1_human PNMA1, Q8ND90
Chain of pnma1_human PNMA1, Q8ND90 (Q8ND90 whole entry): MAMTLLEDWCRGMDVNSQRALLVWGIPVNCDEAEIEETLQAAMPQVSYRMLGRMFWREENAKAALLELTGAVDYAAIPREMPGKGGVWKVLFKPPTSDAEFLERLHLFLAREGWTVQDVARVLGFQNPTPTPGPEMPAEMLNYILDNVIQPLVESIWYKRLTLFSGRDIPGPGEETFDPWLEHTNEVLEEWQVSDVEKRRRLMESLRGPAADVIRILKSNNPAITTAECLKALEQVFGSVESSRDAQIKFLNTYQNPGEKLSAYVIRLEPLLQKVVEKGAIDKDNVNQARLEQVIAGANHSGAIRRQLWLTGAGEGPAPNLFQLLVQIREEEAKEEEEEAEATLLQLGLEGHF

Row | Variant | effect of a mutation on the interaction
1 | F665S | with no effect
2 | D880Y | with no effect
3 | V493A | with no effect

Variants of: B1
Conditions: with fam9b_human FAM9B

Row | Variant | effect of a mutation on the interaction
4 | F665S | with no effect
5 | D880Y | with no effect
6 | V493A | with no effect

Variants of: B2
Conditions: with dnal4_human DNAL4, O96015

Row | Variant | effect of a mutation on the interaction
7 | N33S | with no effect

Variants of: B3
Conditions: with s5a1_human SRD5A1, P18405

Row | Variant | effect of a mutation on the interaction
8 | I277T | disrupting interaction strength

Variants of: B4
Conditions: with dtx2_human DTX2, Q86UW9
Chain of dtx2_human DTX2, Q86UW9 (Q86UW9 whole entry): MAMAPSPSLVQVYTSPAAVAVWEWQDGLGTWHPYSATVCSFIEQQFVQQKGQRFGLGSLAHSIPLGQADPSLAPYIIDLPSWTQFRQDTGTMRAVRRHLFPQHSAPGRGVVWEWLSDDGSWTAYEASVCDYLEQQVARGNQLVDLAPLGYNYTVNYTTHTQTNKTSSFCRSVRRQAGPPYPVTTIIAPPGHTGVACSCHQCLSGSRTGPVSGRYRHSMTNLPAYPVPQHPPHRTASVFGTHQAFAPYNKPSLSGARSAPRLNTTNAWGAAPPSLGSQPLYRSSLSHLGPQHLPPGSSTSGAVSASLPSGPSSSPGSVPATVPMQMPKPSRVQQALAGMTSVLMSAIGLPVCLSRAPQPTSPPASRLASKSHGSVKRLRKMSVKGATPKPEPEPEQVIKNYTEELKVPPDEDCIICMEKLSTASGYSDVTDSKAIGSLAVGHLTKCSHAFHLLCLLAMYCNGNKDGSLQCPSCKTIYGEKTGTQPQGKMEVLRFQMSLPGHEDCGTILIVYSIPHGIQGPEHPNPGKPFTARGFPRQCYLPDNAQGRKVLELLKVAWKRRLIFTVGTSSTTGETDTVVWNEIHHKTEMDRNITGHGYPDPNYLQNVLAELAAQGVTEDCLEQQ

Row | Variant | effect of a mutation on the interaction
9 | R239C | with no effect

Variants of: B5
Conditions: with npm2_human NPM2, Q86SE8

Row | Variant | effect of a mutation on the interaction
10 | E149K | with no effect

Variants of: B6
Conditions: with ddx6_human DDX6, P26196
Chain of ddx6_human DDX6, P26196 (P26196 whole entry): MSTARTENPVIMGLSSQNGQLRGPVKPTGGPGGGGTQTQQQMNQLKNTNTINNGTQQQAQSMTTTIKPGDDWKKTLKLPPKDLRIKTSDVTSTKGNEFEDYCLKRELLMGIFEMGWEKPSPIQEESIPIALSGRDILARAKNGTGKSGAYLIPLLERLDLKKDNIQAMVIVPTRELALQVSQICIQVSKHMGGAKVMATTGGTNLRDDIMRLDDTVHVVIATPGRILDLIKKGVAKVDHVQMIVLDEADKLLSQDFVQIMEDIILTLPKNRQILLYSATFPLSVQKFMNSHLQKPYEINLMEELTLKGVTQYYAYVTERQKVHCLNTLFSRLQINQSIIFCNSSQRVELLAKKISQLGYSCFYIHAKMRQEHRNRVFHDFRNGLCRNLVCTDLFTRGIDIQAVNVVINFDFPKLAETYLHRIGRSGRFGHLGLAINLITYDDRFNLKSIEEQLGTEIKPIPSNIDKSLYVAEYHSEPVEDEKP

Row | Variant | effect of a mutation on the interaction
11 | R232G | with no effect
